According to publication PMC4754693 (Scientific Reports, 2016):

Biological target: the molecule itself
Assay: AUC

B1: SARS 3C-like proteinase (SARS-3CLpro), wild type (enzyme)
chain: SGFRKMAFPSGKVEGCMVQVTCGTTTLNGLWLDDTVYCPRHVICTAEDMLNPNYEDLLIRKSNHSFLVQAGNVQLRVIGHSMQNCLLRLKVDTSNPKTPKYKFVRIQPGQTFSVLACYNGSPSGVYQCAMRPNHTIKGSFLNGSCGSVGFNIDYDCVSFCYMHHMELPTGVHAGTDLEGKFYGPFVDRQTAQAAGTDTTITLNVLAWLYAAVINGDRWFLNRFTTTLNDFNLVAMKYNYEPLTQDHVDILGPLSAQTGIAVLDMCAALKELLQNGMNGRTILGSTILEDEFTPFDVVRQCSGVTFQ
  stoichiometry N: 2
